According to US20180327462A1:

Biological target: SH2-GFP-tail substrate with the SH2 domain of human Abl1 (human; yeast) (UniProt P00519)
Experiment: cell-based or functional assay

Chain of UniProt P00519 (P00519 other isoform, or with tags, fused parts or gaps, form in doubt): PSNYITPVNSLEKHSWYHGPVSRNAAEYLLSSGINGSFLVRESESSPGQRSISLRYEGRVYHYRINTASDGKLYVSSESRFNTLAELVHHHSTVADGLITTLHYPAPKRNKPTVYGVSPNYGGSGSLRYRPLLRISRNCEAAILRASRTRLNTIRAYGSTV

Substance | substrate amount in cell lysate (SDS-PAGE, Typhoon fluorescence, ImageJ) [fold] | substrate turnovers per degradon molecule (10 nM degradon, varied substrate, GFP fluorescence) [times]
FLAG-hUbL-mB^HA4 (binding degradon; human Rad23b UbL domain fused N-terminally to the HA4 monobody) (from UniProt P54727 1-83) (designed binder) | 4 | –
UbL-mB^HA4 degradon (yeast Rad23 UbL domain fused N-terminally to the HA4 monobody) (from UniProt P32628 1-77) (designed binder) | – | 5
